The labels stand for the following.
T1: human IL4 (IL004, Millipore) (human, UniProt P05112 25-153)
T1 construct: Bought protein, used as analyte in SPR; also called interleukin IL4
T1 sequence (looked up): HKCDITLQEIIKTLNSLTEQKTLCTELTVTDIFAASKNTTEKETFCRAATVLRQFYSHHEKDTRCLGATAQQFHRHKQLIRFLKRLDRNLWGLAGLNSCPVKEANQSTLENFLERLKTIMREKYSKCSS

B1: protein variant (4), Diabody Split CH2 (included) ("Splite") (bispecific antibody, IgG1)
chain 1: DIVLTQSPASLAVSLGQRATISCRASESVDSYGQSYMHWYQQKAGQPPKLLIYLASNLESGVPARFSGSGSRTDFTLTIDPVQAEDAATYYCQQNAEDSRTFGGGTKLEIKGGPSVFLFPPKPKDTLMISRTPEVTCVVVDVSHEDPEVKFNWYVDGVEVHNGGGGSGGGGSGGGGSDIQMTQSPASLSVSVGDTITLTCHASQNIDVWLSWFQQKPGNIPKLLIYKASNLHTGVPSRFSGSGSGTGFTLTISSLQPEDIATYYCQQAHSYPFTFGGGTKLEIK
chain 2: EVQLKESGPGLVAPGGSLSITCTVSGFSLTDSSINWVRQPPGKGLEWLGMIWGDGRIDYADALKSRLSISKDSSKSQVFLEMTSLRTDDTATYYCARDGYFPYAMDFWGQGTSVTVSSGGGGSGGGGSGGGGSAKTKPREEQYNSTYRVVSVLTVLHQDWLNGKEYKCKVSNKALPAPIEKTISKAKGQPREQVQLQQSGPELVKPGASVKISCKASGYSFTSYWIHWIKQRPGQGLEWIGMIDPSDGETRLNQRFQGRATLTVDESTSTAYMQLRSPTSEDSAVYYCTRLKEYGNYDSFYFDVWGAGTLVTVSSHHHHHH
notes: Split IgG1 CH2 domain inserted between the variable domains; also called splite diabody
B2: protein variant (1), Diabody-added Split CH2 (diabody split CH2, anti-IL4/anti-IL13) (bispecific antibody)
chain 1: DIVLTQSPASLAVSLGQRATISCRASESVDSYGQSYMHWYQQKAGQPPKLLIYLASNLESGVPARFSGSGSRTDFTLTIDPVQAEDAATYYCQQNAEDSRTFGGGTKLEIKGGGSGGGGQVQLQQSGPELVKPGASVKISCKASGYSFTSYWIHWIKQRPGQGLEWIGMIDPSDGETRLNQRFQGRATLTVDESTSTAYMQLRSPTSEDSAVYYCTRLKEYGNYDSFYFDVWGAGTLVTVSSGGPSVFLFPPKPKDTLMISRTPEVTCVVVDVSHEDPEVKFNWYVDGVEVHN
chain 2: DIQMTQSPASLSVSVGDTITLTCHASQNIDVWLSWFQQKPGNIPKLLIYKASNLHTGVPSRFSGSGSGTGFTLTISSLQPEDIATYYCQQAHSYPFTFGGGTKLEIKGGGSGGGGEVQLKESGPGLVAPGGSLSITCTVSGFSLTDSSINWVRQPPGKGLEWLGMIWGDGRIDYADALKSRLSISKDSSKSQVFLEMTSLRTDDTATYYCARDGYFPYAMDFWGQGTSVTVSSGGGGSGGGGSAKTKPREEQYNSTYRVVSVLTVLHQDWLNGKEYKCKVSNKALPAPIEKTISKAKGQPREHHHHHH
notes: Two chains joined by the disulfide bond of the reassembled IgG1 split CH2 domain
B3: protein variant (11), Split CH2 bivalent bispecific antibody (bispecific antibody, human IgG4 S228P, kappa)
heavy: EVQLKESGPGLVAPGGSLSITCTVSGFSLTDSSINWVRQPPGKGLEWLGMIWGDGRIDYADALKSRLSISKDSSKSQVFLEMTSLRTDDTATYYCARDGYFPYAMDFWGQGTSVTVSSASTKGPSVFPLAPCSRSTSESTAALGCLVKDYFPEPVTVSWNSGALTSGVHTFPAVLQSSGLYSLSSVVTVPSSSLGTKTYTCNVDHKPSNTKVDKRVESKYGPPCPPCPAPEFEGGPSVFLFPPKPKDTLMISRTPEVTCVVVDVSQEDPEVQFNWYVDGVEVHNAKTKPREEQFNSTYRVVSVLTVLHQDWLNGKEYKCKVSNKGLPSSIEKTISKAKGQPREPQVCTLPPSRDELTKNQVSLSCAVKGFYPSDIAVEWESNGQPENNYKTTPPVLDSDGSFFLVSKLTVDKSRWQQGNVFSCSVMHEALHNRFTQKSLSLSPG
light: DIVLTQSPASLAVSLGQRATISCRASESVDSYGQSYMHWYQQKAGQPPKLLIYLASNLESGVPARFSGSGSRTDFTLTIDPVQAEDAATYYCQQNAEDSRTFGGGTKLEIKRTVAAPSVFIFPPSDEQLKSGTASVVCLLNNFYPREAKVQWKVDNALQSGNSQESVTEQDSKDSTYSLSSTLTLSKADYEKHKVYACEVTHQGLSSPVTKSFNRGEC
chain 1: QVQLQQSGPELVKPGASVKISCKASGYSFTSYWIHWIKQRPGQGLEWIGMIDPSDGETRLNQRFQGRATLTVDESTSTAYMQLRSPTSEDSAVYYCTRLKEYGNYDSFYFDVWGAGTLVTVSSGGGGGSGGGGGSAKTKPREEQYNSTYRVVSVLTVLHQDWLNGKEYKCKVSNKALPAPIEKTISKAKGQPREGGGSGSAESKYGPPCPPCPAPEFEGGPSVFLFPPKPKDTLMISRTPEVTCVVVDVSQEDPEVQFNWYVDGVEVHNAKTKPREEQFNSTYRVVSVLTVLHQDWLNGKEYKCKVSNKGLPSSIEKTISKAKGQPREPQVYTLPPCRDELTKNQVSLWCLVKGFYPSDIAVEWESNGQPENNYKTTPPVLDSDGSFFLYSKLTVDKSRWQQGNVFSCSVMHEALHNHYTQKSLSLSPG
chain 2: DIQMTQSPASLSVSVGDTITLTCHASQNIDVWLSWFQQKPGNIPKLLIYKASNLHTGVPSRFSGSGSGTGFTLTISSLQPEDIATYYCQQAHSYPFTFGGGTKLEIKGGGGPSVFLFPPKPKDTLMISRTPEVTCVVVDVSHEDPEVKFNWYVDGVEVHN
notes: Four chains; on one arm CH1 and CL are replaced by the split CH2 domain; heavy chains heterodimerize by knob-into-hole mutations
B4: protein variant (12), Split CH2 bivalent bispecific antibody (bispecific antibody, human IgG4 S228P, kappa)
heavy: B3 heavy
light: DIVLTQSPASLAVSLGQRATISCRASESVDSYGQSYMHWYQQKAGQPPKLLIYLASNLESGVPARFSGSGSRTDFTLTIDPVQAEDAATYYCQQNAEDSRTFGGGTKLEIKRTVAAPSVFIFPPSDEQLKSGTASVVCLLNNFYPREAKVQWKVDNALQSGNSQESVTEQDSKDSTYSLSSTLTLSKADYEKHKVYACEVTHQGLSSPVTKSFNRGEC
chain 1: DIQMTQSPASLSVSVGDTITLTCHASQNIDVWLSWFQQKPGNIPKLLIYKASNLHTGVPSRFSGSGSGTGFTLTISSLQPEDIATYYCQQAHSYPFTFGGGTKLEIKGGGGGSGGGGGSAKTKPREEQYNSTYRVVSVLTVLHQDWLNGKEYKCKVSNKALPAPIEKTISKAKGQPREGGGSGSAESKYGPPCPPCPAPEFEGGPSVFLFPPKPKDTLMISRTPEVTCVVVDVSQEDPEVQFNWYVDGVEVHNAKTKPREEQFNSTYRVVSVLTVLHQDWLNGKEYKCKVSNKGLPSSIEKTISKAKGQPREPQVYTLPPCRDELTKNQVSLWCLVKGFYPSDIAVEWESNGQPENNYKTTPPVLDSDGSFFLYSKLTVDKSRWQQGNVFSCSVMHEALHNHYTQKSLSLSPG
chain 2: QVQLQQSGPELVKPGASVKISCKASGYSFTSYWIHWIKQRPGQGLEWIGMIDPSDGETRLNQRFQGRATLTVDESTSTAYMQLRSPTSEDSAVYYCTRLKEYGNYDSFYFDVWGAGTLVTVSSGGGGPSVFLFPPKPKDTLMISRTPEVTCVVVDVSHEDPEVKFNWYVDGVEVHN
notes: as for B3
B5: protein variant (8), Diabody Split CH2 tetravalent bispecific antibody (bispecific antibody, human IgG4 S228P)
chain 1: B2 chain 1
chain 2: not shown
notes: variant (1) fused to an IgG Fc-domain
B6: protein variant (10), CODV-Split CH2 tetravalent bispecific antibody (bispecific antibody, human IgG4 S228P, kappa)
chain 1: DIVLTQSPASLAVSLGQRATISCRASESVDSYGQSYMHWYQQKAGQPPKLLIYLASNLESGVPARFSGSGSRTDFTLTIDPVQAEDAATYYCQQNAEDSRTFGGGTKLEIKGQPKAAPSDIQMTQSPASLSVSVGDTITLTCHASQNIDVWLSWFQQKPGNIPKLLIYKASNLHTGVPSRFSGSGSGTGFTLTISSLQPEDIATYYCQQAHSYPFTFGGGTKLEIKTKGPSVFRTVAAPSVFIFPPSDEQLKSGTASVVCLLNNFYPREAKVQWKVDNALQSGNSQESVTEQDSKDSTYSLSSTLTLSKADYEKHKVYACEVTHQGLSSPVTKSFNRGECGGPSVFLFPPKPKDTLMISRTPEVTCVVVDVSHEDPEVKFNWYVDGVEVHN
chain 2: not shown
notes: variant (3) fused to an IgG Fc-domain
B7: protein variant (9), DVD-Split CH2 tetravalent bispecific antibody (bispecific antibody, human IgG4 S228P, kappa)
chain 1: DIVLTQSPASLAVSLGQRATISCRASESVDSYGQSYMHWYQQKAGQPPKLLIYLASNLESGVPARFSGSGSRTDFTLTIDPVQAEDAATYYCQQNAEDSRTFGGGTKLEIKGGGGSGGGGSDIQMTQSPASLSVSVGDTITLTCHASQNIDVWLSWFQQKPGNIPKLLIYKASNLHTGVPSRFSGSGSGTGFTLTISSLQPEDIATYYCQQAHSYPFTFGGGTKLEIKRTVAAPSVFIFPPSDEQLKSGTASVVCLLNNFYPREAKVQWKVDNALQSGNSQESVTEQDSKDSTYSLSSTLTLSKADYEKHKVYACEVTHQGLSSPVTKSFNRGECGGPSVFLFPPKPKDTLMISRTPEVTCVVVDVSHEDPEVKFNWYVDGVEVHN
chain 2: not shown
notes: variant (2) fused to an IgG Fc-domain

In the first assay the target is T1, human IL4 (IL004, Millipore). Description: SPR (Biacore), variant captured with His-capture kit, IL4 as analyte. The method, then:
(§1) Binding of antigens to the antibody constructs was measured using surface plasmon resonance (SPR) on a BIAcore 3000 instrument (GE Healthcare) with HBS-EP buffer (GE Healthcare). As antigens human IL4 (IL004, Millipore) and human IL13 (IL012, Millipore) were used. The capture antibody (human antibody capture kit, His capture kit, Fab capture kit, GE Life Sciences) was immobilized via primary amine groups (11000 RU) on a research grade CMS chip (GE Life Sciences) using standard procedures. […] The antigens human IL4 and human IL13 were used as analytes and injected for 240 sec with a dissociation time of 300 sec at a flow rate of 30 μL/min. IL4 and IL13 were used in a dilution series of 0.1 nM to 3 nM and 0.8 nM to 25 nM, respectively. Chip surfaces were regenerated with 2 min injects of the regeneration buffer provided with the capture kit. Sensorgrams were double referenced with a blank chip surface and HBS-EP buffer blanks. Recombinant human neonatal Fc-receptor (FcRn) protein was immobilized via primary amine groups (200 RU) in the sample flow cell compartment of a research grade CMS chip (GE Life Sciences) using standard procedures. The reference flow cell compartment was activated and deactivated without FcRn immobilization to generate a blank chip surface. For the analysis an assay buffer with pH 6.0 was used (150 mM NaCl, 20 mM Na-phosphate, 0.05% surfactant P20, pH6.0). The antibody was used as analyte at 800 nM dilution in assay buffer and injected over reference and sample flow cells for 240 sec with a dissociation time of 300 sec at a flow rate of 30 μL/min. Chip surfaces were regenerated with 2 min injects of HBS-EP buffer at 30 μl/min. Sensorgrams were double referenced with a the blank chip surface and HBS-EP buffer blanks. All data analysis was done using the BIAevaluation software v4.1.
(Surface plasmon resonance follows binding to a sensor surface in real time, without labels.)
B1: the Kd (usually the equilibrium constant for the complex coming apart) came out at 64.8 pM; the koff – broadly, the first-order rate constant of dissociation – came to 0.000224 s⁻¹; the kon (as a rule, the second-order rate constant of association) was determined as 3.46e+06 M⁻¹ s⁻¹.

Consider B2, for which the Ka was 6.24e+10 M⁻¹; the affinity, expressed as Kd, was 16 pM; the koff stood at 0.00117 s⁻¹; the kon amounted to 7.32e+07 M⁻¹ s⁻¹.

For the next assay the target is unchanged. Description: SPR (Biacore), variant captured with human antibody capture kit, IL4 as analyte. As for the experimental part: as §1
B3 gave a Kd of 1.3 pM, a koff of 8.91e-05 s⁻¹ and a kon of 6.84e+07 M⁻¹ s⁻¹.

Turning to B4, the Kd was found to be 0.922 pM.

On to B5, for which the Kd stood at 1.43 pM, the koff came to 0.000135 s⁻¹ and the kon was found to be 9.49e+07 M⁻¹ s⁻¹.

Molecule B6 registered a Kd of 0.222 pM, a koff of 0.000204 s⁻¹ and a kon of 9.19e+08 M⁻¹ s⁻¹.

In turn, B7 returned a Kd of 6.09 pM, a koff of 0.000108 s⁻¹ and a kon of 1.77e+07 M⁻¹ s⁻¹.

The target is the same in the next assay. The experiment in a line: SPR (Biacore 3000), construct captured, IL4 as analyte; summary table. The method, then: as §1
The molecule B3 had a Kd of 1.3 pM.

The molecule B4 returned a Kd of 0.922 pM.

Molecule B1 registered a Kd of 64.8 pM.

With B5, binding was put at a Kd of 1.43 pM.

In turn, B2 displayed a Kd of 16 pM.

As for B6, the Kd stood at 0.222 pM.

Regarding B7, the affinity, expressed as Kd, was 6.09 pM.

These data come from US20230103563A1 (Sanofi, published 2023).
